The values below come from the Immune Epitope Database (IEDB).

For one experiment, the target named is HLA-B*15:17. Description: IEDB peptide-MHC binding, purified MHC/competitive/fluorescence; filed as Kd, often an IC50 or EC50 that approximates it; ≥ and ≤ were set here for values at or beyond the usual limits of such assays. As to conditions: source organism: Francisella tularensis subsp. tularensis FSC198.
Another experiment concerns the target HLA-B*35:01. The experiment is described as above. Conditions: source organism: Francisella tularensis subsp. tularensis FSC198.
In the next experiment the target is HLA-A*30:01. Described as above. As to conditions: source organism: Francisella tularensis subsp. tularensis FSC198.
For another experiment, the target named is HLA-A*26:02. Described as above. As to conditions: source organism: Francisella tularensis subsp. tularensis FSC198.
The target in a further experiment is HLA-A*02:03. The experiment is described as above. Conditions: source organism: Francisella tularensis subsp. tularensis FSC198.
The target in experiment [1] is HLA-A*11:01. Description: IEDB peptide-MHC binding, purified MHC/direct/fluorescence; filed as Kd, often an IC50 or EC50 that approximates it; ≥ and ≤ were set here for values at or beyond the usual limits of such assays. Conditions: source organism: Francisella tularensis subsp. holarctica LVS.
In a further experiment the target is HLA-A*31:01. The description is as above. Conditions: source organism: Francisella tularensis subsp. holarctica LVS.
A further experiment has as its target HLA-B*48:01. The description is as above. Conditions: source organism: Francisella tularensis subsp. holarctica LVS.
Another experiment concerns the target HLA-B*27:05. The experiment is described as above. Conditions: source organism: Francisella tularensis subsp. holarctica LVS.
Experiment [2] deals with HLA-B*07:02. Described as above. As to conditions: source organism: Francisella tularensis subsp. holarctica LVS.
The next experiment addresses HLA-B*46:01. Described as above. As to conditions: source organism: Francisella tularensis subsp. holarctica LVS.
The target of another experiment is HLA-A*01:01. Described as above. As to conditions: source organism: Francisella tularensis subsp. holarctica LVS.
The target of another experiment is HLA-A*69:01. Described as above. As to conditions: source organism: Francisella tularensis subsp. holarctica LVS.
The target of experiment [3] is HLA-B*58:01. Described as above. Conditions: source organism: Francisella tularensis subsp. holarctica LVS.
For experiment [4], the target named is HLA-A*02:01. Described as above. Conditions: source organism: Francisella tularensis subsp. holarctica LVS.
The next experiment addresses HLA-B*57:01. The description is as above. Conditions: source organism: Francisella tularensis subsp. holarctica LVS.
The target in experiment [5] is HLA-B*15:01. The description is as above. As to conditions: source organism: Francisella tularensis subsp. holarctica LVS.
The target of a further experiment is HLA-B*08:01. The experiment is described as above. Conditions: source organism: Francisella tularensis subsp. tularensis FSC033.
The next experiment deals with HLA-B*15:02. The experiment is described as above. As to conditions: source organism: Francisella tularensis subsp. tularensis FSC033.
A further experiment addresses HLA-B*15:09. Described as above. As to conditions: source organism: Francisella tularensis subsp. tularensis FSC033.
The next experiment deals with HLA-A*68:02. Described as above. As to conditions: source organism: Francisella tularensis subsp. holarctica LVS.
The target of another experiment is HLA-B*39:01. Description: IEDB peptide-MHC binding, purified MHC/competitive/fluorescence; filed as Kd, often an IC50 or EC50 that approximates it; ≥ and ≤ were set here for values at or beyond the usual limits of such assays. Conditions: source organism: Yersinia pestis Nepal516.
In a further experiment the target is HLA-B*51:01. Described as above. As to conditions: source organism: Yersinia pestis Nepal516.
Experiment [6] has as its target HLA-B*58:01. The experiment is described as above. As to conditions: source organism: Yersinia pestis Nepal516.
For experiment [7], the target named is HLA-A*02:01. The description is as above. As to conditions: source organism: Yersinia pestis Nepal516.
The target of experiment [8] is HLA-B*15:01. The experiment is described as above. Conditions: source organism: Yersinia pestis Nepal516.
For another experiment, the target named is HLA-C*05:01. Description: IEDB peptide-MHC binding, purified MHC/direct/fluorescence; filed as Kd, often an IC50 or EC50 that approximates it; ≥ and ≤ were set here for values at or beyond the usual limits of such assays.
The target of another experiment is HLA-C*08:02. Described as above.
For experiment [9], the target named is HLA-A*11:01. Description: IEDB peptide-MHC binding, purified MHC/competitive/fluorescence; ≥ and ≤ were set here for values at or beyond the usual limits of such assays. Conditions: source organism: Zaire ebolavirus.
For experiment [10], the target named is HLA-B*07:02. The experiment is described as above. As to conditions: source organism: Zaire ebolavirus.
In a further experiment the target is HLA-A*24:02. The experiment is described as above. As to conditions: source organism: Zaire ebolavirus.
Experiment [11] addresses HLA-A*02:01. The experiment is described as above. As to conditions: source organism: Zaire ebolavirus.
For experiment [12], the target named is HLA-B*15:01. The experiment is described as above. Conditions: source organism: Zaire ebolavirus.
The target in another experiment is HLA-C*03:03. Description: IEDB peptide-MHC binding, purified MHC/direct/fluorescence; filed as Kd, often an IC50 or EC50 that approximates it; ≥ and ≤ were set here for values at or beyond the usual limits of such assays. Conditions: source organism: Mycobacterium tuberculosis C.
The target in another experiment is HLA-C*12:03. The description is as above. Conditions: source organism: Francisella tularensis subsp. tularensis WY96-3418.
A further experiment deals with HLA-A*02:12. Described as above. As to conditions: source organism: Francisella tularensis subsp. tularensis FSC033.
Another experiment deals with HLA-A*02:11. The description is as above. As to conditions: source organism: Francisella tularensis subsp. tularensis FSC033.
In another experiment the target is HLA-A*02:19. Described as above. Conditions: source organism: Francisella tularensis subsp. tularensis FSC033.
Setting [13] is: source organism: Yersinia pestis Nepal516.
Setting [14] is: source organism: Mycobacterium tuberculosis C.

For the sequence FQVNRFTGY, the Kd in the experiment with HLA-B*15:17 is no less than 20000 nM; with HLA-B*35:01, 4410 nM; in the experiment with HLA-A*30:01 it was no less than 20000 nM; in the experiment with HLA-A*26:02 it was 113 nM; in the experiment with HLA-A*02:03, no less than 20000 nM; in the experiment with HLA-A*11:01 [1], no less than 20000 nM. Also, the dissociation constant (Kd) with HLA-A*31:01 was no less than 20000 nM; with HLA-B*48:01, no less than 20000 nM; in the experiment with HLA-B*27:05 it was 632 nM; with HLA-B*07:02 [2], no less than 20000 nM; with HLA-B*46:01, no less than 20000 nM; with HLA-A*01:01, no less than 20000 nM. In addition, the dissociation constant Kd with HLA-A*69:01 is no less than 20000 nM; with HLA-B*58:01 [3] it was no less than 20000 nM; in the experiment with HLA-A*02:01 [4], no less than 20000 nM; with HLA-B*57:01 it was no less than 20000 nM; in the experiment with HLA-B*15:01 [5] it was 9.7 nM; with HLA-B*08:01 it was no less than 20000 nM. The Kd is 8 nM with HLA-B*15:02, no less than 20000 nM with HLA-B*15:09 and no less than 20000 nM with HLA-A*68:02.
FSYNVAYAI: the Kd with HLA-B*39:01 is 469 nM; in the experiment with HLA-B*51:01, 2270 nM; with HLA-B*58:01 [6], 36.3 nM; with HLA-A*02:01 [7] it was 29.6 nM; with HLA-B*15:01 [8], no less than 20000 nM; with HLA-C*05:01 (setting [13]), 4960 nM. In addition, in the experiment with HLA-C*08:02 (setting [13]), the dissociation constant (Kd) is 182 nM.
RTNFLIKFL: the IC50 was no less than 589000 nM in the experiment with HLA-A*11:01 [9]; no less than 275000 nM in the experiment with HLA-B*07:02 [10]; 10200 nM with HLA-A*24:02; no less than 165000 nM in the experiment with HLA-A*02:01 [11]; no less than 725000 nM with HLA-B*15:01 [12].
SPQNHSETA gave an IC50 with HLA-B*07:02 [10] of 45200 nM.
On to YLDAIQQPV, for which the dissociation constant Kd with HLA-C*05:01 (setting [14]) was 25 nM; with HLA-C*03:03, 256 nM; with HLA-C*08:02 (setting [14]), no more than 1 nM.
Regarding YLYPWSLGL, the Kd with HLA-C*12:03 is 4 nM; with HLA-A*02:12 it was 2 nM; with HLA-A*02:11, no more than 1 nM; in the experiment with HLA-A*02:19, 12 nM; with HLA-A*02:01 [4] it was no more than 1 nM; with HLA-C*08:02 (source organism: Francisella tularensis subsp. tularensis WY96-3418), no less than 20000 nM.
